Series [1] in a line: circular dichroism. The conditions noted are these: 5 mM sodium phosphate; pH 7.0; ns °C; 0.5 or 2 mg/mL. A general note: Circular dichroism is widely used to follow secondary structure.
The nature of series [2]: Circular dichroism, percent α-helicity in solution. It is filed as physicochemical. The conditions noted are these: CD, 5 mM sodium phosphate buffer pH 7.0. The method, then: CD was measured on a JASCO J-810 spectropolarimeter, and spectra were either recorded with a quartz cuvette (Helmer) with a pathlength of 0.01 cm or 0.1 cm in 5 mM sodium phosphate buffer (pH 7.0). FUV CD spectra were recorded from 260 nm to 200 nm at a peptide concentration of either 2 mg/ml or 0.5 mg/ml, respectively. The CD signal was converted into mean residue ellipticity in units of degree·cm^2·dmol^−1·residue^−1. CD spectra were recorded at a data pitch of 0.2 nm at 50 nm min^−1, a response time of 2 s, and a bandwidth of […]. Once converted to mean residue ellipticity, percent α-helicity can be calculated with equation (1) and (2): […]

Positions of bridges follow the written chain, without caps; N, C: chain ends. Non-standard residues stand in square brackets, D forms with d. Residues, ends and D or L forms follow the SMILES beside them. S5 = C=CCCC[C@](C)(N)C(=O)O; Abu = CC[C@H](N)C(=O)O; Aib = CC(C)(N)C(=O)O

In series [1], `CC(=O)N[C@@H](CCCCN)C(=O)N[C@@H](CCCCN)C(=O)N[C@@H](CCCNC(=N)N)C(=O)N[C@@H](Cc1ccc(O)cc1)C(=O)N[C@@H](CO)C(=O)N[C@@H](CCCNC(=N)N)C(=O)NC(C)(C)C(=O)N[C@@H](Cc1ccccc1)C(=O)N[C@@H](CC(C)C)C(=O)N[C@@H](CC(C)C)C(=O)NC(C)(C)C(N)=O` (Ac-KKRYSR[Aib]FLL[Aib]-NH2) showed a helicity of 7%.

Take `CC(=O)N[C@@H](CCCCN)C(=O)N[C@@H](CCCCN)C(=O)N[C@@H](CCCNC(=N)N)C(=O)N[C@@H](Cc1ccc(O)cc1)C(=O)N[C@@H](CO)C(=O)N[C@@H](CCCNC(=N)N)C(=O)NC(C)(C)C(=O)N[C@@H](Cc1ccccc1)C(=O)N[C@@H](CC(C)C)C(=O)N[C@@H](CC(C)C)C(=O)NC(C)(C)C(=O)N[C@@H](Cc1ccccc1)C(N)=O` (Ac-KKRYSR[Aib]FLL[Aib]F-NH2): in series [1], the helicity worked out at 2%.

`CC(=O)N[C@@H](CCCCN)C(=O)N[C@@H](CCCCN)C(=O)N[C@@H](CCCNC(=N)N)C(=O)N[C@@H](Cc1ccc(O)cc1)C(=O)N[C@@H](CO)C(=O)N[C@@H](CCCNC(=N)N)C(=O)N[C@@]1(C)CCCC=CCCC[C@@](C)(C(N)=O)NC(=O)[C@H](CC(C)C)NC(=O)[C@H](CC(C)C)NC(=O)[C@H](Cc2ccccc2)NC1=O` (Ac-KKRYSR[S5]FLL[S5]-NH2; staple 7-11): the helicity in series [1] worked out at 72%.

As for `CC(=O)N[C@@H](CCCCN)C(=O)N[C@@H](CCCCN)C(=O)N[C@@H](CCCNC(=N)N)C(=O)N[C@@H](Cc1ccc(O)cc1)C(=O)N[C@@H](CO)C(=O)N[C@@H](CCCNC(=N)N)C(=O)N[C@@]1(C)CCCC=CCCC[C@@](C)(C(=O)N[C@@H](Cc2ccccc2)C(N)=O)NC(=O)[C@H](CC(C)C)NC(=O)[C@H](CC(C)C)NC(=O)[C@H](Cc2ccccc2)NC1=O` (Ac-KKRYSR[S5]FLL[S5]F-NH2; staple 7-11), in series [1], the helicity is 24%.

For the compound `CC(=O)N[C@@H](CCCCN)C(=O)N[C@@H](CCCCN)C(=O)N[C@@H](CCCNC(=N)N)C(=O)N[C@@H](Cc1ccc(O)cc1)C(=O)N[C@@H](CO)C(=O)N[C@@H](CCCNC(=N)N)C(=O)N[C@@]1(C)CCCC=CCCC[C@@](C)(C(=O)N[C@@H](CC(C)C)C(N)=O)NC(=O)[C@H](CC(C)C)NC(=O)[C@H](CC(C)C)NC(=O)[C@H](CCC(N)=O)NC1=O` (relative stereo) [sTIP-04, KKRYSR*QLL*L], in series [2], the “Helicity (%)” value is 63%.

On to `CC(=O)N[C@@H](CCCCN)C(=O)N[C@@H](CCCCN)C(=O)N[C@@H](CCCNC(=N)N)C(=O)N[C@@H](Cc1ccc(O)cc1)C(=O)N[C@@H](CO)C(=O)N[C@@H](CCCNC(=N)N)C(=O)NC(C)(C)C(=O)N[C@@H](C)C(=O)N[C@@H](CC(C)C)C(=O)N[C@@H](CC(C)C)C(=O)NC(C)(C)C(=O)N[C@@H](Cc1ccccc1)C(N)=O` [TIP-01^F8A, KKRYSRXALLXF] (Ac-KKRYSR[Aib]ALL[Aib]F-NH2), for which, in series [2], the “Helicity (%)” value amounted to 10%. Moreover, the helicity in series [1] was 10%.

For the compound `CC[C@H](NC(=O)C(C)(C)NC(=O)[C@H](CC(C)C)NC(=O)[C@H](CC(C)C)NC(=O)[C@H](Cc1ccccc1)NC(=O)C(C)(C)NC(=O)[C@H](CCCNC(=N)N)NC(=O)[C@H](CO)NC(=O)[C@H](Cc1ccc(O)cc1)NC(=O)[C@H](CCCNC(=N)N)NC(=O)[C@H](CCCCN)NC(=O)[C@H](CCCCN)NC(C)=O)C(N)=O` [TIP-01^F12&, KKRYSRXFLLX&] (Ac-KKRYSR[Aib]FLL[Aib][Abu]-NH2), the “Helicity (%)” value in series [2] came out at 11%. Also, in series [1], the helicity amounted to 11%.

Turning to `CC(=O)N[C@@H](CCCCN)C(=O)N[C@@H](CCCCN)C(=O)N[C@@H](CCCNC(=N)N)C(=O)N[C@@H](Cc1ccc(O)cc1)C(=O)N[C@@H](CO)C(=O)N[C@@H](CCCNC(=N)N)C(=O)NC(C)(C)C(=O)N[C@@H](CCC(N)=O)C(=O)N[C@@H](CC(C)C)C(=O)N[C@@H](CC(C)C)C(=O)NC(C)(C)C(=O)N[C@@H](CC(C)C)C(N)=O` [TIP-04, KKRYSRXQLLXL], the “Helicity (%)” value in series [2] worked out at 4%. Besides, in series [1], the helicity is 4%.

Consider “Ac-KKRYSREFLLGF-NH2 [eIF4G^D5S, reference compound]”, for which the “Helicity (%)” value in series [2] is recorded as 0%. This compound also registered a helicity in series [1] of 0%.

For the origin of these results see US20160046672A1, “STAPLING eIF4E INTERACTING PEPTIDES” (AGENCY FOR SCIENCE, TECHNOLOGY AND RESEARCH, priority 2013, published 2016).
